From paper PMC11215065
Where “and” joins values, the source holds several entries; their conditions need not be identical. Identical values can stand only once.

How the values were obtained:
[1] = target: Soluble U20 extracellular domain (sU20) of HHV-6B (HHV-6B); experiment: SEC-MALS; EndoH-treated U20 alone; 1 mg/ml, PBS, room temperature
[2] = target: Soluble U20 extracellular domain (sU20) of HHV-6B (HHV-6B); experiment: SEC-MALS; U20 with intact high mannose glycans, alone; 1 mg/ml, PBS, room temperature
[3] = target: ULBP1-Fc; experiment: SEC-MALS; EndoH-deglycosylated U20 with ULBP1-Fc; 1 mg/ml, PBS, room temperature, WTC-030S5 column
[4] = target: Soluble U20 extracellular domain (sU20) of HHV-6B (HHV-6B); experiment: SEC-SAXS; EndoH-treated U20 alone, 4.5 mg/mL, Superdex 200 Increase 5/150 GL in line with SAXS; mass by Porod volume
[5] = target: ULBP1-6xHIS soluble construct (ULBP1-6H); experiment: SEC-SAXS; equimolar mixture of EndoH-treated U20 and ULBP1-6H, 4.5 mg/mL, Superdex 200 Increase 5/150 GL in line with SAXS
[6] = target: ULBP1 on transduced HEK293 cells (UniProt Q9BZM6); experiment: flow cytometry on cells; ULBP1 (or ULBP3) HEK293 cells pretreated with sU20 at various concentrations for 5 minutes on ice, then stained with 5 nM NKG2D-Fc
[7] = target: ULBP1 on transduced HEK293 cells (UniProt Q9BZM6); experiment: flow cytometry on cells; ULBP1 expressing cells pretreated with soluble U20 at various concentrations, then stained with APC conjugated anti-ULBP1 (R&D Systems FAB1380A)
[8] = target: ULBP1-Fc; experiment: SPR; Biacore 3000; biotinylated ULBP1-Fc (1000-2500 RU) on a Neutravidin coated CM5 chip; U20 injected at 0.125-32 μM; CD200 receptor Fc flow cell subtracted; equilibrium fit, one site specific binding, apparent; 20°C
[9] = target: NKG2D-Fc (UniProt P26718); experiment: SPR; format not told in the text (Supplementary Figure S1A)
Sequence of NKG2D-Fc (P26718 73-216): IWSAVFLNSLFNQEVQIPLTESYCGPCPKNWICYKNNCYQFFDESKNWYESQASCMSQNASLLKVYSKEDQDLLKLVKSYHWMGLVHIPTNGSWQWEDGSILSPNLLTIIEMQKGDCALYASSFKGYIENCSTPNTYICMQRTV

Sequence of Soluble U20 extracellular domain (sU20) of HHV-6B (domain or fragment) (Q9QJ46 16-321 limits assumed): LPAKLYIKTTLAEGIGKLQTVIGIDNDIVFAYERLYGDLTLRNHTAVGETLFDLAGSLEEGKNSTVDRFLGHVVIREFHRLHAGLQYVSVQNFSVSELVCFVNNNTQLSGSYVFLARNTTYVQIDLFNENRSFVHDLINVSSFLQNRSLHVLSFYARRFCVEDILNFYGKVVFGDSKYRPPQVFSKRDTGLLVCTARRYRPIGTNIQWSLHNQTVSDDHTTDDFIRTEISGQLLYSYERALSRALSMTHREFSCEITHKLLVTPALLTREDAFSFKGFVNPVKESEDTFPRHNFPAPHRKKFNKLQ

Substance | stoichiometry N [1] | stoichiometry N [2] | stoichiometry N [3] | stoichiometry N [4] | stoichiometry N [5] | decrease in NKG2D-Fc binding to ULBP1 cells at 5 μM sU20 [6] | reduction of anti-ULBP1 antibody binding to ULBP1 cells at 0.125 μM sU20 [7] | dissociation half-life [8] | Kd [9]
Soluble U20 extracellular domain (sU20) of HHV-6B (domain or fragment) | 2 | 2 | 1 | 2 | 1 | 90% | 60% | 1.05 min and 2.07 min | –
ULBP1-6xHIS soluble construct (ULBP1-6H) (domain or fragment) | – | – | – | – | – | – | – | – | 1000 nM
